From PMC2756588

B1: unnamed (peptide)
chain: NMLSRPRLAKLPSIR
B2: unnamed (peptide)
chain: FSRRQSMDIPSKNRN
B3: unnamed (peptide)
chain: NVLRKILEIPLHSFS
B4: unnamed (peptide)
chain: NIKVLLNPKLGKPVK

Legend:
Experiment in all cases: SPOT array
Bbc1, P47068 = target: T1, Bbc1, P47068; details: median of control spots 796
T1 sequence (P47068 1-78, looked up): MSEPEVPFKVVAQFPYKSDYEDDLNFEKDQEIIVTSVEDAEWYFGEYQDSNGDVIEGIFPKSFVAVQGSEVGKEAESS

Sho1, P40073 = details: median of control spots 1148
Lsb4, P32793 = target: T2, Lsb4, P32793; details: median of control spots 397
T2 sequence (P32793 402-468, looked up): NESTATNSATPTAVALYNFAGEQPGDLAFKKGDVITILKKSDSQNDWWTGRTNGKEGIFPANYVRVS

Nbp2, Q12163 = target: T3, Nbp2, Q12163; details: median of control spots 357
T3 sequence (Q12163 103-180, looked up): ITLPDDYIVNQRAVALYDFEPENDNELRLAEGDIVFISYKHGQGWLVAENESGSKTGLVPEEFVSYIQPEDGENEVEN

Myo3, P36006 = details: median of control spots 468
Rvs167, P39743 = details: median of control spots 2707
Sequence of Rvs167, P39743 (P39743 419-482): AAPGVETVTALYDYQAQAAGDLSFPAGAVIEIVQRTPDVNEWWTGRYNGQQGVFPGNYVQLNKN

Bud14, P27637 = target: T4, Bud14, P27637; details: median of control spots 956
T4 sequence (P27637 247-328, looked up): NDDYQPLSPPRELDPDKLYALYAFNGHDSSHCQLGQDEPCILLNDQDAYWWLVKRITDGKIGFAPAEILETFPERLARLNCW

Pin3, Q06449 = target: T5, Pin3, Q06449; details: median of control spots 2171
T5 sequence (Q06449 53-122, looked up): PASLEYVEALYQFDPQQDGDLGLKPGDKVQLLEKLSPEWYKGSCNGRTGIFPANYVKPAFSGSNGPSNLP

GST = details: median of control spots 978
Bzz1-2, P38822 = target: T6, Bzz1-2, P38822; details: median of control spots 4538
T6 sequence (P38822 568-633, looked up): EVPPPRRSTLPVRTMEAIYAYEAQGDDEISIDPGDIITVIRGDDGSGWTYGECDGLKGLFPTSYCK

Myo5, Q04439 = target: T7, Myo5, Q04439; details: median of control spots 471
T7 sequence (Q04439 1072-1160, looked up): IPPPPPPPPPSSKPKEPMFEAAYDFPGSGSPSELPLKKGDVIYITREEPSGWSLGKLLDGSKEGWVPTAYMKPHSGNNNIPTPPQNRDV

Boi1, P38041 = target: T8, Boi1, P38041; details: median of control spots 1162
T8 sequence (P38041 1-86, looked up): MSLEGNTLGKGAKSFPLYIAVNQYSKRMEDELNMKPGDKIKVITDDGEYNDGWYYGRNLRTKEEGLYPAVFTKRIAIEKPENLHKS

Lsb3, P43603 = target: T9, Lsb3, P43603; details: median of control spots 406
T9 sequence (P43603 385-451, looked up): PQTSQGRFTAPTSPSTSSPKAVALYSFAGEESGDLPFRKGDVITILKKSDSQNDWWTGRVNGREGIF

Bem1-2, P29366 = details: median of control spots 4347
Sequence of Bem1-2, P29366 (P29366 139-227): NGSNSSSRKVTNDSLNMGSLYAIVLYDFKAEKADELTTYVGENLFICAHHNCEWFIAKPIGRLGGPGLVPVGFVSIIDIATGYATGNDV

Pex13, P80667 = target: T10, Pex13, P80667; details: median of control spots 1341
T10 sequence (P80667 295-386, looked up): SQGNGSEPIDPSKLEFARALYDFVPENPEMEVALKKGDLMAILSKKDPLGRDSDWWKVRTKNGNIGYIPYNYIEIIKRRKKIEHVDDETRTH

Boi2, P39969 = target: T11, Boi2, P39969; details: median of control spots 1161
T11 sequence (P39969 32-116, looked up): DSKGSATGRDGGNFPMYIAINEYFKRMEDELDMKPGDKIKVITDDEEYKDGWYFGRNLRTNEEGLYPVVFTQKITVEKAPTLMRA

Bzz1-1, P38822 = target: T12, Bzz1-1, P38822; details: median of control spots 4446
T12 sequence (P38822 478-572, looked up): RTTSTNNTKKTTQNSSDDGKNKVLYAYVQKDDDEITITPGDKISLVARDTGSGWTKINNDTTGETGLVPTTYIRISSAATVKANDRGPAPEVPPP

Sla1-3, P32790 = target: T13, Sla1-3, P32790; details: median of control spots 5475
T13 sequence (P32790 344-424, looked up): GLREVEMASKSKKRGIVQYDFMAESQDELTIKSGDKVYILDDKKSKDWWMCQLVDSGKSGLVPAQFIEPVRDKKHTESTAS

Cdc25, P04821 = target: T14, Cdc25, P04821; details: median of control spots 969
T14 sequence (P04821 50-136, looked up): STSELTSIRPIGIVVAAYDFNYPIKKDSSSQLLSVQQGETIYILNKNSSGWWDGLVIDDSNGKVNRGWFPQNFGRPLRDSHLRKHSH

Abp1, P15891 = target: T15, Abp1, P15891; details: median of control spots 935
T15 sequence (P15891 535-592, looked up): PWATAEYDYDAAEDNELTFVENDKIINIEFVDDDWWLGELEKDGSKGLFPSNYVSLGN

Hse1, P38753 = target: T16, Hse1, P38753; details: median of control spots 1727
T16 sequence (P38753 208-285, looked up): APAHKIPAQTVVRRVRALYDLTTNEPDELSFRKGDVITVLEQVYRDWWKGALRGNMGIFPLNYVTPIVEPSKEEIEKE

Hof1, Q05080 = target: T17, Hof1, Q05080; details: median of control spots 4086
T17 sequence (Q05080 590-669, looked up): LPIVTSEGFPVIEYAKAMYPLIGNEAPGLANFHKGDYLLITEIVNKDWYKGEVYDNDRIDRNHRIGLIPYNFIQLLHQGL

Cyk3, Q07533 = target: T18, Cyk3, Q07533; details: median of control spots 1451
T18 sequence (Q07533 1-83, looked up): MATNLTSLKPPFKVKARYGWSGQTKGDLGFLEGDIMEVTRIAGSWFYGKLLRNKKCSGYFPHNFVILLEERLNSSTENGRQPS

Fus1, P11710 = target: T19, Fus1, P11710; details: median of control spots 1200
T19 sequence (P11710 432-512, looked up): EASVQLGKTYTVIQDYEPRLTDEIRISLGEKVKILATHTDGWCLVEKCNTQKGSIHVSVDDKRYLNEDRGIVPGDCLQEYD

Sla1-2, P32790 = target: T20, Sla1-2, P32790; details: median of control spots 712
T20 sequence (P32790 60-140, looked up): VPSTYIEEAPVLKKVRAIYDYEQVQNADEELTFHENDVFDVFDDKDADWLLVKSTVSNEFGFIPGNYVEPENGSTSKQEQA

Bem1-1, P29366 = details: median of control spots 4282
Sequence of Bem1-1, P29366 (P29366 55-141): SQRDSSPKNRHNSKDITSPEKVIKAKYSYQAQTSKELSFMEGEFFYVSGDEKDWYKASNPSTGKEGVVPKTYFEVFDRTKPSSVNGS

Lsb1, P53281 = target: T21, Lsb1, P53281; details: median of control spots 388
T21 sequence (P53281 45-122, looked up): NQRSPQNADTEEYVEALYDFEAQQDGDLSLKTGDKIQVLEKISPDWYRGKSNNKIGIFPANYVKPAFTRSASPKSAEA

Sequence of Sho1, P40073 (P40073 287-367): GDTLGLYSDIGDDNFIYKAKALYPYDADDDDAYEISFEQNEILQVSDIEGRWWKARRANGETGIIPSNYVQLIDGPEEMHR

Row | Binder | SPOT intensity (Bbc1, P47068) | SPOT intensity (Sho1, P40073) | SPOT intensity (Lsb4, P32793) | SPOT intensity (Nbp2, Q12163) | SPOT intensity (Myo3, P36006) | SPOT intensity (Rvs167, P39743) | SPOT intensity (Bud14, P27637) | SPOT intensity (Pin3, Q06449) | SPOT intensity (GST) | SPOT intensity (Bzz1-2, P38822) | SPOT intensity (Myo5, Q04439) | SPOT intensity (Boi1, P38041) | SPOT intensity (Lsb3, P43603) | SPOT intensity (Bem1-2, P29366) | SPOT intensity (Pex13, P80667) | SPOT intensity (Boi2, P39969) | SPOT intensity (Bzz1-1, P38822) | SPOT intensity (Sla1-3, P32790) | SPOT intensity (Cdc25, P04821) | SPOT intensity (Abp1, P15891) | other results
1 | B1 | 54 | 38 | 10 | 0 | 9 | 0 | 33 | 40 | 0 | 11 | 11 | 5 | 2 | 18 | 21 | 2 | 0 | 25 | 108 | 42 | SPOT intensity (Hse1, P38753): 216; SPOT intensity (Hof1, Q05080): 178; SPOT intensity (Cyk3, Q07533): 1; SPOT intensity (Fus1, P11710): 12; SPOT intensity (Sla1-2, P32790): 1; SPOT intensity (Bem1-1, P29366): 0; SPOT intensity (Lsb1, P53281): 59
2 | B2 | 7 | 60 | 84 | 2 | 44 | 0 | 6 | 195 | 1 | 26 | 83 | 0 | 22 | 0 | 61 | 1 | 1 | 1 | 16 | 127 | SPOT intensity (Hse1, P38753): 8; SPOT intensity (Hof1, Q05080): 0; SPOT intensity (Cyk3, Q07533): 0; SPOT intensity (Fus1, P11710): 0; SPOT intensity (Sla1-2, P32790): 27; SPOT intensity (Bem1-1, P29366): 7; SPOT intensity (Lsb1, P53281): 200
3 | B3 | 62 | 6 | 0 | 0 | 0 | 0 | 31 | 0 | 0 | 5 | 0 | 6 | 0 | 0 | 0 | 0 | 0 | 0 | 105 | 7 | SPOT intensity (Hse1, P38753): 5; SPOT intensity (Hof1, Q05080): 0; SPOT intensity (Cyk3, Q07533): 1; SPOT intensity (Fus1, P11710): 35; SPOT intensity (Sla1-2, P32790): 0; SPOT intensity (Bem1-1, P29366): 2; SPOT intensity (Lsb1, P53281): 0
4 | B4 | 111 | 63 | 1 | 2 | 6 | 0 | 27 | 2 | 0 | 6 | 0 | 5 | 0 | 3 | 6 | 0 | 2 | 8 | 96 | 93 | SPOT intensity (Hse1, P38753): 20; SPOT intensity (Hof1, Q05080): 13; SPOT intensity (Cyk3, Q07533): 5; SPOT intensity (Fus1, P11710): 2; SPOT intensity (Sla1-2, P32790): 0; SPOT intensity (Bem1-1, P29366): 2; SPOT intensity (Lsb1, P53281): 1
